From patent US20150004129A1 come the findings set out here.

Bounds are passed on as bounds.

Test [1] has as its target Flag-CD40L (AA 116 to 261) (human) (UniProt P29965). Description: competitive ELISA; receptor/Fc coated, sCD40L at constant concentration, competitor titrated. Background: An ELISA detects its analyte on a solid surface through an enzyme-linked reagent.
The target is the same in test [2]. Description: competitive ELISA; receptor/Fc coated, sCD40L at constant concentration, competitor titrated with 1 ug/ml protein A.
In test [3] the target is Flag-FasL (soluble FasL) (UniProt P48023). Description: BIAcore; Flag-FasL captured on immobilised M2 anti-Flag antibody, receptor fusion protein injected. Background: Surface plasmon resonance follows binding to a sensor surface in real time, without labels.
UniProt P48023, sequence (P48023 other isoform, or with tags, fused parts or gaps): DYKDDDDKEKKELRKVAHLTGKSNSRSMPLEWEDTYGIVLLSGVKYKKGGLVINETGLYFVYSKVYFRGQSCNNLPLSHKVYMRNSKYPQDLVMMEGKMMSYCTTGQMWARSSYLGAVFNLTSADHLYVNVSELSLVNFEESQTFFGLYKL
For test [4] the target is unchanged. Nature of the test: cell-based or functional assay.
The target is the same in test [5]. Description: BIAcore; Flag-FasL captured on immobilised M2 anti-Flag antibody.
The target of the next test is Flag-TRAIL (UniProt P50591). Description: BIAcore; 7 ul of 2.5 ug/ml Flag-TRAIL over immobilised M2 antibody.
Test [6] has as its target Flag-FasL (soluble FasL) (UniProt P48023). Description: BIAcore; 7 ul of 2.5 ug/ml Flag-FasL over immobilised M2 antibody.

UniProt P29965, sequence (P29965 other isoform, or with tags, fused parts or gaps): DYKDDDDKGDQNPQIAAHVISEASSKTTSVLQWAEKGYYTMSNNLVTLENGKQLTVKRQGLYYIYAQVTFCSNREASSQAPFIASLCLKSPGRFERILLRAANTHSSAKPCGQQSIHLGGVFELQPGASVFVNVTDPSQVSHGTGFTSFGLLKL

The substance “CD40:COMP fusion protein (from UniProt P25942 1-193) (receptor)” yielded a fold increase in the affinity against CD40:Fc in test [1] of 30 fold.

Consider “CD40:Fc cross-linked with protein A (from UniProt P25942 1-193)”, for which the fold increase in the affinity against CD40:Fc in test [2] was 8 fold.

What is called Kd is the free concentration of one partner at which half of the binding sites on the other are occupied at equilibrium, for simple one-to-one binding. Low readings indicate tighter binding, high ones weaker binding. Turning to “Fas:COMP fusion protein (from UniProt P25445 26-170) (receptor)”, in the test with Flag-FasL (soluble FasL) [3], the Kd amounted to 0.77 nM. The same substance showed an inhibitory activity against sFasL-mediated lysis, fold against Fas:Fc in the test with Flag-FasL (soluble FasL) [4] of 10 to 20 fold. The fold lower dissociation constant than Fas:Fc in the test with Flag-FasL (soluble FasL) [5] is 8 to 9 fold.

As to “Fas:Fc fusion protein (from UniProt P25445 26-170)”, the protection of A20 cells exposed to a lethal dose of soluble FasL (cytotoxicity test) in the test with Flag-FasL (soluble FasL) [4] was less than 50%.

Consider M2 anti-Flag monoclonal antibody, for which the units bound (BIAcore) with Flag-TRAIL and with Flag-FasL (soluble FasL) [6] was 100 to 150 units throughout.
